As a reminder, the Kd is the constant that tells how readily two partners part at equilibrium. A low value points to tighter binding.

Here are results for one molecule from patent US20090022663A1.

This test addresses 161P2F10B variant 1 (human 161P2F10B), on the cell surface (human) (UniProt O14638). Briefly: FACS titration on KU-812 cells, one site binding fit.

B1: H16-1.92.1.1 (antibody, part only; not given: light chain, V domains shown, part only)
VH: EVLLVESGPGLVKPSETLSLTCTVSGGSISSSSYFWGWIRQPPGKGLEWIGSIYYSGNTYYNPSLKSRVTISVDTSKNRFSLKLSSVTAADTAVYCCASATTVTTAFDIWGQGTMVTVSSASTKGPSVFPLAPSS
Molecule B1 displayed a Kd of 4.73 nM.
